Source: patent publication US20240182596A1 (TUBULIS, published 2024)

Tests used:
[1] = target: T1, HEK293 cyno-NaPi2B-mCherry (Macaca fascicularis, UniProt A0A2K5UHY1); test: flow cytometry on HEK293 cells stably expressing cynomolgus full-length NaPi2b-mCherry, Alexa-dye anti-human IgG H+L secondary antibody, MFI ratio, one-site specific binding fit; the Kd table prints no unit, the concentration axis is in nM
T1 construct: full-length mCherry fusion stably expressed on HEK293 cells; also called cynomolgus full-length NaPi2b-mCherry on HEK293 cells
T1 sequence (target on cells): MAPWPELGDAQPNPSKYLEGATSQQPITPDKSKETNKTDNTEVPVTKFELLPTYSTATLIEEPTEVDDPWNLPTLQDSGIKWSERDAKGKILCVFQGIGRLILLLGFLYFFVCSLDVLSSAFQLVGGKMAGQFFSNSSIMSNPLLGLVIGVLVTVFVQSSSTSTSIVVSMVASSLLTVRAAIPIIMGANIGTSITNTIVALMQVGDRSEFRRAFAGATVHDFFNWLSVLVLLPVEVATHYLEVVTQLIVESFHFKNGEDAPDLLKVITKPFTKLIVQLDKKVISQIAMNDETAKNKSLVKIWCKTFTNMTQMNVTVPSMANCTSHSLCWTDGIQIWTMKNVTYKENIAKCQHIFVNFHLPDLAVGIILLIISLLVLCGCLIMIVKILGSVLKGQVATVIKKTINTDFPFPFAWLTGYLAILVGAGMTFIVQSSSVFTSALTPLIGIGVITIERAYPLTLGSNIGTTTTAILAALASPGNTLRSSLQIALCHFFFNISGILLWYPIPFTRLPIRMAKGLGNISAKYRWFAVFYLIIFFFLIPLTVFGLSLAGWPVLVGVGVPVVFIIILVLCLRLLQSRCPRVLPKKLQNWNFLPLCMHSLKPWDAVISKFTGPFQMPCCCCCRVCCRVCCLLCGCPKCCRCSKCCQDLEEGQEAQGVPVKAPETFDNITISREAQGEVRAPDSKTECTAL
Text: (§1) HEK293 cells stably overexpressing human and rat Napi2b were generated by stable integration of a human or rat full-length Napi2b-mCherry-(GGGS)3x-mCherry expression construct under control of a human EF1 promoter and a Puromycin-selection cassette under a CMV promoter into the parental HEK293 cell line. In brief, cells were transfected with the linearized plasmids using Lipfectamine 2000 (Thermo Fisher) and selected with Puromycin antibiotic. Cells were then single cell cloned in 96-well plates via serial dilution under continuous antibiotic selection. Clones were screened for target expression via flow cytometry and mCherry fluorescence via flow cytometry and fluorescence microscopy. Target- and mCherry-positive clones were expanded and used for further experiments. […] Binding of antibodies was investigated on mCherry-positive cells. Mean fluorescence intensity (MFI) ratios were normalized to the secondary antibody control. The assay was performed in duplicates and data points were analyzed by a non-linear regression using a one-site specific binding model to derive KD values using Prism 9 software.

[2] = target: T2, purified recombinant human Napi2b antigen consisting of Napi2b-extracellular-loop2 expressed as … (human, UniProt O95436 234-362, limits assumed); test: ELISA, coated Napi2b-extracellular-loop2-Fc-6-His, apparent KD from one-site fit
T2 construct: Expressed in Expi-HEK293 cells; also called immobilized human NaPi2B; not shown: Fc part; 6-His tag
T2 sequence: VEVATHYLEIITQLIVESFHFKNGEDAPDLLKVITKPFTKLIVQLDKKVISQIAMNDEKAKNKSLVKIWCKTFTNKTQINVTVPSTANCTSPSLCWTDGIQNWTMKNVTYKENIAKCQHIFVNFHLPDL

[3] = target: T3, human NaPi2b on NaPi2b-positive cell lines OVCAR-3 and HCC-78 (human, UniProt O95436 1-690); test: flow cytometry on OVCAR-3 cells; table column Binding KD (nmol/L), FACS (OVCAR-3)
T3 construct: Endogenous protein
T3 sequence: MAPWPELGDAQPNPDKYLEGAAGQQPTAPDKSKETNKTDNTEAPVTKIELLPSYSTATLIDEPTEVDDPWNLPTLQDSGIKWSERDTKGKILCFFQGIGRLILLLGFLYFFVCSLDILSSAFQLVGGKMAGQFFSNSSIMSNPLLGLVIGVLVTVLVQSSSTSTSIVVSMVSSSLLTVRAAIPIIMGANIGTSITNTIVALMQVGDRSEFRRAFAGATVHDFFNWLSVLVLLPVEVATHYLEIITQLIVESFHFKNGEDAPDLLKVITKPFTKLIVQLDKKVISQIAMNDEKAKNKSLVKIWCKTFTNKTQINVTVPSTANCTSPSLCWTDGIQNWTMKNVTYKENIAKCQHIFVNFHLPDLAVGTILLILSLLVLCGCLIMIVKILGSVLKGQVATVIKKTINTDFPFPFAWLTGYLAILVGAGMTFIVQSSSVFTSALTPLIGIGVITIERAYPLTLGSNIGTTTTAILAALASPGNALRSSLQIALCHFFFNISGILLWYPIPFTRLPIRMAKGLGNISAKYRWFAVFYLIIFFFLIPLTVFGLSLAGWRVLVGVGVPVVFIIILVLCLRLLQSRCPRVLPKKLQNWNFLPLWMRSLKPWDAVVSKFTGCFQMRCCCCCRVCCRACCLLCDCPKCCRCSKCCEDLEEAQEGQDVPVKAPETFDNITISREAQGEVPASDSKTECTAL

[4] = target: T4, human Napi2b-mCherry on HEK293 cells (human, UniProt O95436 1-690); test: flow cytometry on HEK293 cells stably expressing human full-length NaPi2b-mCherry, Alexa-dye anti-human IgG H+L secondary antibody, MFI ratio, one-site specific binding fit; the Kd table prints no unit, the concentration axis is in nM
T4 construct: also called Napi2b (SLC34A2); HEK293 cells overexpressing Napi2b
T4 sequence: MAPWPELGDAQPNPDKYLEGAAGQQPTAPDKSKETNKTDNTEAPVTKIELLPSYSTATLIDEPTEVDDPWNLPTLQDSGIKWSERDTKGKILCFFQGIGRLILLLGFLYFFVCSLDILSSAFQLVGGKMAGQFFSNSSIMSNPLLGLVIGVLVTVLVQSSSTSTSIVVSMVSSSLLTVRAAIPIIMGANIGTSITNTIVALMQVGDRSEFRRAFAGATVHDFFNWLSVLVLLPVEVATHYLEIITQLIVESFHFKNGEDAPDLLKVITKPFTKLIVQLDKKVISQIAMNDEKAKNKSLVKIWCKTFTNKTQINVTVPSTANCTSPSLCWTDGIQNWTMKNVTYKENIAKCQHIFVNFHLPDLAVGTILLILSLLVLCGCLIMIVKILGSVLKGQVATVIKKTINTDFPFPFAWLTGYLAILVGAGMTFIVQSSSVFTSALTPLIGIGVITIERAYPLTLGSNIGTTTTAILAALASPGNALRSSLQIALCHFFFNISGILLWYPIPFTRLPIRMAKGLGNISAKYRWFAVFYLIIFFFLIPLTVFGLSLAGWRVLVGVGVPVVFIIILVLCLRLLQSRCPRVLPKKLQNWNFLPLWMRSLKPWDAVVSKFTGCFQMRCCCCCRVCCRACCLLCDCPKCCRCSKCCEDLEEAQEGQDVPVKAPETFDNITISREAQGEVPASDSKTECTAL
Text: as §1

[5] = target: T2, purified recombinant human Napi2b …; test: ELISA on the isolated immobilized protein; table column Binding KD (nmol/L), ELISA
[6] = target: T3, human NaPi2b on NaPi2b-positive cell …; test: flow cytometry on OVCAR-3 cells, one-site fit
Experimental: (§2) To determine concentration-dependent binding, NaPi2b-positive OVCAR-3 and HCC-78 were incubated with antibodies in concentrations ranging from 0.00075 to 30 μg/ml, stained with an Alexa-dye-labeled anti-human IgG H+L secondary antibody (Thermo Fisher Scientific), and analyzed by flow cytometry. Mean fluorescence intensity (MFI) ratios were normalized to the non-specific binding control. The assay was performed in duplicates and data points were analyzed by a non-linear regression using a one-site specific binding model using Prism 9 software.

[7] = target: T3, human NaPi2b on NaPi2b-positive cell …; test: flow cytometry on NaPi2b-positive OVCAR-3 cells, Alexa-dye-labeled anti-human IgG H+L secondary antibody, MFI ratio normalized to the non-specific binding control
Experimental: as §2

[8] = target: T3, human NaPi2b on NaPi2b-positive cell …; test: flow cytometry on NaPi2b-positive HCC-78 cells, Alexa-dye-labeled anti-human IgG H+L secondary antibody, MFI ratio normalized to the non-specific binding control
Experimental: as §2

[9] = target: T3, human NaPi2b on NaPi2b-positive cell …; test: flow cytometry on HCC-78 cells, one-site fit
Experimental: as §2

Binder	Kd [1] [nM]	Kd [2] [µg/mL]	Kd [3] [nM]	Kd [4] [nM]	Kd [5] [nM]	Kd [6] [µg/mL]	EC50 (read off the curve) [7] [µg/mL]	EC50 (read off the curve) [8] [µg/mL]	Kd [9] [µg/mL]
AV-15 antibody (antibody, human IgG1, kappa, L234A L235A, V domains shown) VH: EVQLVQSGAEVVKPGASVKMSCKASGYTFTGYNIHWVKQAPGQGLEWIGAIYPGNGDTSYKQKFRGRATLTADTSTSTVYMELSSLRSEDSAVYYCARGETARATFAYWGQGTLVTVSS VL: DIQMTQSPSSLSASVGDRVTITCSASQDIGKFLNWYQQKPGKTVKVLIYYSSSLYSGVPSRFSGSGSGTDYTLTISSLQPEDFATYYCQQYSKVPLTFGQGTKLELKR	2.7	0.0158	6.6	3.5	0.105				
Upifitamab (antibody, human IgG1, kappa, L234A L235A, V domains shown, Bought from MedChemExpress) VH: EVQLVQSGAEVVKPGASVKMSCKASGYTFTGYNIHWVKQAPGQGLEWIGAIYPGNGDTSYKQKFRGRATLTADTSTSTVYMELSSLRSEDSAVYYCARGETARATFAYWGQGTLVTVSS VL: DIQMTQSPSSLSASVGDRVTITCSASQDIGNFLNWYQQKPGKTVKVLIYYTSSLYSGVPSRFSGSGSGTDYTLTISSLQPEDFATYYCQQYSKLPLTFGQGTKLELKR						1.11	~1	~1	1.27
AV-29 antibody (antibody, human IgG1, kappa, L234A L235A, V domains shown) VH: EVQLVQSGAEVVKPGASVKMSCKASGYTFTGYNILWVKQAPGQGLEWIGAIYPGNGGTSYKQKFRGRATITADTSTSTVYMELSSLRSEDSAVYYCARGEIARATFAYWGQGTLVTVSS VL: DIQMTQSPSSLSASVGDRVTITCSASQDIGNFLNWYQQKPGKTVKVLIYYASSLYSGVPSRFSGSGSGTDYTLTISSLQPEDFATYYCQQYSKLPLTFGQGTKLELKR	1.91	0.0124	3.5	2.66	0.082				
AV-18 antibody (antibody, human IgG1, kappa, L234A L235A, V domains shown) VH: EVQLVQSGAEVVKPGASVKMSCKASGYTFTGYIIHWVKQAPGQGLEWIGAIYPGSGATSYKQKFRGRATLTADTSTSTVYMELSSLRSEDSAVYYCARGETARATFAYWGQGTLVTVSS VL: DIQMTQSPSSLSASVGDRVTITCSASQDIGNFLNWYQQKPGKTVKVLIYYTSSLYSGVPSRFSGSGSGTDYTLTISSLQPEDFATYYCQQYSKLPLTFGQGTKLELKR	1.61	0.0149	3.8	2.31	0.099				
AV-21 antibody (antibody, human IgG1, kappa, L234A L235A, V domains shown) VH: EVQLVQSGAEVVKPGASVKMSCKASGYTFTGQIIHWVKQAPGQGLEWIGAISPGNSGTSYKQKFRGRATLTADTSTSTVYMELSSLRSEDSAVYYCARGETARATFAYWGQGTLVTVSS VL: DIQMTQSPSSLSASVGDRVTITCSASQDIGNFLNWYQQKPGKTVKVLIYYTSSLYSGVPSRFSGSGSGTDYTLTISSLQPEDFATYYCQQYSKLPLTFGQGTKLELKR	1.5	0.0125	3.5	2.08	0.083				
